B1: C884 (antibody, V domains shown)
VH: QVQLQQWGAGLLKPSETLSLTCVVYGGSFSAYYWSWIRQPPGKGLEWIGEINHSGSTNYKSSLQSRVTISVDTSKNQFSLKLSSVTAADTAVYYCARETGTYGTFDHWGQGTLVTVSS
VL: EIVLTQSPGTLSLSPGERATLSCRASQSVSSTYLAWYQQKPGQAPRLLIYGASSRATGIPDRFSGSGSGTDFTLTISRLEPEDFAVYYCQQYAFSVWTFGQGTKVEI
notes: IgG; V domains only
B2: C872 (antibody, V domains shown)
VH: EVQLVESGGGLIQPGGSLRLSCAASGFIVSNNYISWVRQAPGKGLEWVSVIYSGGTTYYADSVKGRFSISRDTSKNTVYLQINNLRAEDTAVYYCAREGDVDGNYGFWSGYSRDRYYFDYWGQGTLVTVSS
VL: QSALTQPASVSGSPGQSITISCTGTSSDVGAYNYVAWYQQHPGKAPKLMVYDVSKRPSGVSNRFSGSKSGNTASLTISGLQTEDEGDYYCCSYTTNTTRVFGTGTMLTVL
notes: IgG; V domains only
B3: C894 (antibody, V domains shown)
VH: EVQLVQSGAEVKKPGESLRISCKGSGYSFTGYWISWVRQMPGKGLEWMGRIDPSDSYTNYSPSFEGHVTFSADTALSTAYLQWSSLQASDTAIYFCGRIAPPGRGSYYPTQNYMDVWGKGTTVTVSS
VL: EIVLTQSPGTLSLSPGERATLSCTADQSVPNSYLAWYQHKPGQAPRLLIYGASSRATGIPDRFSGSGSGIDFTLTISRLEPEDFAVYYCQQYGSLLLTFGGGTKVEIK
notes: IgG; V domains only
B4: C877 (antibody, V domains shown)
VH: EVQLVESGGGLIPPGGSLRLSCAASGIIVSRNYMSWVRQTPGKGLEWVSVMYAGGTKEYADSVKGRFIISRDDSNNTLYLQMNSLRAEDTAVYYCARDLIVLGVDVWGQGTTVTVSS
VL: DIQLTQSPSFLSASVGDRVTITCRASQGISNYLAWYQQKPGKAPKLLIYAASTLQSGVPSRFSGSGSGTEFTLTISSLQPEDFATYYCQLLNSYPMCSFGQGTKLEIK
notes: IgG; V domains only
B5: C862 (antibody, V domains shown)
VH: QVQLQESGPGLVKPSQTLSLTCTVSGASISSSEHYWSWIRQPPGKGLEWIGYISYSGGTYQNPSLQSRMTLSMDASKNQFSLKLSSVTAADTAVYFCARLNTMIVMINGVFDVWGQGTMVTVSS
VL: DIQMTQSPSSLSAFVGDRVTITCQASQDINKYVNWYQQKPGKAPKLLIYDASNLQTGVPSRFSGSGSGTHFTFTISSLQPEDFATYYCQEYDNLFSISFGQGTRLEIK
notes: IgG; V domains only
B6: C888 (antibody, V domains shown)
VH: EVQLVESGGGLVQPGGSLRLSCAASGFTVSSNYMSWVRQAPGKGLEWVSVIYSGGSAYYADSVKGRFTISRDNSKNTLYLQMNSLRAEDTAVYYCARDLRDQDGYSYGAFDYWGQGTLVTVSS
VL: QSALTQPASVSGSPGQSITISCTGTSSDVGGYNYVSWYQQHPGKAPKLMIYDVSNRPSGVSNRFSGSKSGNTASLTISGLQAEDEADYYCSSYTSSSSWVFGGGTKLTVL
notes: IgG; V domains only
B7: C881 (antibody, V domains shown)
VH: EVQLVESGGGLIQPGGSLRLSCAVSGVAVSTNYMSWVRQAPGQGLEWVSTIYSGDTTYYSDSVKGRFTISRDNSKNTFYLQMNSLRVPDTAVYYCARLGGVFNGFNGSFDYWGQGTLVTVS
VL: QSALTQPASVSGSPGQSITISCIGTSSDFENYNLVSWYQQHPGKAPKVMIYEDTKRPSGVSNRFSGSKSANTASLTISGLQAEDEAEYYCCSYAGASTWVFGGGTRVTVV
notes: IgG; V domains only
B8: C882 (antibody, V domains shown)
VH: QVQLVESGGGVVQPGRSLRLSCAASGFTFIRYNMHWVRQAPGKGLEWVAVIWYDGSNKYYADSVKGRFTISRDNSKNTLYLQMNSLRAEDTAVYYCARDPMIVVVEMDYWGQGTLVTVSS
VL: DVVMTQSPLSLPVTLGQPASISCNSSQSLVHTDGNTYLNWFQQRPGQSPRRLIYKVSNRDSGVPDRFSGSGSDTDFTLQISRVEADDVGVYYCMQGSHWPYTFGQGTKLEIK
notes: IgG; V domains only
B9: C870 (antibody, V domains shown)
VH: EVQLVESGGGLVQPGKSLRLSCAGSGFAFSSYHMNWVRQAPGKGLEWVAYISSGSSTIHYADSVKGRFTISRDNAKNSFYLQMNSLRAEDTALYYCARAIVGTKGYMDVWGKGTTVTVSS
VL: QSALTQPASVSGSPGQSVTISCTGTRSDVGSYDLVSWYQLHADKAPKLIIYEVTSRPSGISTRFSGSKSGNTASLTISGLQAEDEADYYCCSYAGTTWLFGGGTRLTVL
notes: IgG; V domains only
B10: C875 (antibody, V domains shown)
VH: QVQLVQSGAEVKQPGASVKISCKASGYIFTTYFMHWVRQAPGQGLEWLGIIDPTISGASLAQKFQGRVTMTSDTSTSTVYMEMRSLRSDDTALYFCARASTSTSSWSEALSLGSWGQGTLVTVSS
VL: QSVLTQPPSVSGAPGQGVSISCTGSSSNVGAGYGVHWYQQLPGTTPKLLIYDNNSRPAGVPDRFSGSKSGTSASLAIAGLQPEDEADYYCQSWDNGLSGSGVVFGGGTKVTVL
notes: IgG; V domains only
B11: C868 (antibody, V domains shown)
VH: QVQLQESGPRLVKPSETLSLTCIVSGGSVSSNNFYWSWIRQPPGKRLEWIGYFYNSGSSKYNPSLKSRVTISGDTSKNQFSLKLSSVTAADTAVYYCARETFFYDRTGHYKSDGFDVWGQGTMVTVSS
VL: DIQMTQSPSTLSASVGDRVTISCRASQNISSWLAWYQQEAGKAPKLLIYKASSLESGVPSRFSGSGSGTEFTLTISSLQPGDFATYYCQQYNIYSYTFGQGTKLEIK
notes: IgG; V domains only
B12: C866 (antibody, V domains shown)
VH: EVQLVESGGGLVQPGRSLRLSCVASGFEFEDYGMHWVRQVPGKGLEWVSGISWNSASVGYADSVRGRFTISRDNAKNSLYLQMNSLRAEDTALYYCGKQINEWSHFLDYWGQGTLVTVSS
VL: DIQLTQSPSSVSASVGDRVTITCRASQGISNWLAWYQKKPGKAPKLLIYATSSLQSGVPSRFSGSGSETDFTLTIRSLQPEDFATYYCQQANSYPLTFGQGTKLEIK
notes: IgG; V domains only
B13: C885 (antibody, V domains shown)
VH: QVQLQESGPGLVKPSQTLSLTCAVSGDSIRSGGYYWSWVRQHPGRGLEWIGYIYFSGTTYYNPSLKSRVTISVDTSEKQFSLKLTSVTDADTAVYFCARVKGWLRGYFDYWGQGALVTVSS
VL: NFMLTQSHSVSESPGKTVTISCTGSSGNIVNNYVQWYQQRPGSAPIIVIYEDTQRPSGVPDRFSGSIDTSSNSASLTISGLKTEDEADYYCQSYDSGSHVVFGGGTKLTV
notes: IgG; V domains only
B14: C879 (antibody, V domains shown)
VH: QVQLQESGPGLVKPSQTLSLTCGVSGDSISSGGHFWSWVRQHPGTGLEWIAYSPFSGTTYYNPSLKSRVTLSVDTSKNQFFLSLTSVTDADTAVYFCARVKGWLRGYFDHWGQGVLVTVSS
VL: NFMLTQPHSVSESPGKTVTISCTASSGNIVNNYVQWYQQRPGSAPIIVIYEDAQRPSGVPDRFSGSIDTSSNSASLTISGLKTEDEADYYCQSYEIDSHVVFGGGTRLTV
notes: IgG; V domains only
B15: C871 (antibody, V domains shown)
VH: EVQLVESGGGLIQTGGSLKLSCAASGFIVTNNYMSWVRQAPGKGLEWVSVIYSGGTTYYADSVKGRFTISRDISKNTLYLQMNSLKAEDTAVYYCAREGDVEGISDSWSGYSRDRYYFDHWGQGTLVTVSS
VL: QSALTQPASVSGSPGQSITISCTGTSSDVGGYNYVSWYQQHPGKAPKLMIYDVSNRPPTISNRFSGSKSGNTASLIISGLQPEDEADYYCSSFTSNNTRVFGTGTKVTVL
notes: IgG; V domains only
B16: C869 (antibody, V domains shown)
VH: QVQLVESGGGVVQPGTSLRLSCAASGFTFSSFGMNWVRQAPGKGLEWVAVIFFDGSKTYYADSVKGRFTISRDNSKNTLYLQMNSLRTEDTAVYYCAKGQLRLGEFDDYWGQGTLVTVSS
VL: DIQMTQSPSSLSASVGDRVTITCRASQDIRDDLNWYQHKPGKAPKLLIYTASSLQSGVPSRFSGSGSGTDFTLTISRLQPEDFASYYCLQDHNYPLTFGQGTKLEIK
notes: IgG; V domains only
B17: C867 (antibody, V domains shown)
VH: QVQLQESGPGLVKSSETLSLTCTVSSGSVRSGGYYWSWIRHHPGKGLEWIGYIFYTGITYYNPSLKSRVIVSVDPSKNQFSLNLTSVTAADTAVYYCASTPYTNGGAFHIWGQGTMVTVSS
VL: QSALTQPPSASGSPGQSVTISCTGTSSDVGGHNYVSWYQQFPGKAPKLIIYDVNKRPSGVPDRFSGSKSANTASLTVSGLQAEDEADYHCSSYAGSNNWVFGGGTKLTVL
notes: IgG; V domains only
B18: C873 (antibody, V domains shown)
VH: QVQLVQSGPEVKKPGASVKVSCKASGYIFTDYSIHWVRQAPGQGLEWMGWINPNSGGGNSAQIFKGRATMARDTSITTVYMDLSGLRSDDTAVYYCARGPLFHKVVYESSSGFHDGLDFWGQGTMVTVSS
VL: QSALTQPASVSGSPGQSVTISCTGTSSDVGGYNFLSWYQQHPGKAPKLLLYEVINRPSGVSDRFSGSKSGNTASLTISGLQAEDEADYYCNSYTSNFTWVFGGGTHLTV
notes: IgG; V domains only
B19: C880 (antibody, V domains shown)
VH: QVQLQQWGAGLLKPSETLSLTCAVYGGSFSDYYWSWIRQPPGKGLEWIGENNHSGKTNYNPSLENRVTISVDTSKNQFSLKLTSVTAADTAVYYCARESGSYGTFDYWGQGTLVTVSS
VL: EIVLTQSPGTLSLSPGERATLSCRASQSVSSAYLAWYQQKPGQAPRLLIYGASSRATGIPDRFSGSGSGTDFTLTISRLEPEDFAVYFCQQYAYTIWTFGQGTKVEIK
notes: IgG; V domains only
B20: C865 (antibody, V domains shown)
VH: EVQLLESGGGLVQPGGSLRLSCVASRFIFSRYALSWVRQAPGKGLEWVSGISGSGHSTHYADSVTGRFTISRDNSKNTVYLQMSSLRAEDTAVYYCAKGPRSNYDYFESWGQGTLVTVSS
VL: DIQLTQSPSSLSASVGDRVTITCRASQGISSALAWYQQRPGKAPRLLIYDASSLDSGVPSRFSGSGSGTDFTLTISSLQSEDFATYYCQQFINNPLTFGGGTKVEIK
notes: IgG; V domains only
B21: C887 (antibody, V domains shown)
VH: EVQLVESGGDLVQPGGSLRLSCAASGFTFTTYSMSWVRQAPGKGLEWISYINSGSANIHYADSVKGRFTVSRDNAKNSLYLQMNSLRDEDTAVYYCARGDCLSSSCYSLDYWGQGALVTVSS
VL: DIQMTQSPSSLSASVGDRVTITCRASQSITSYLSWYLQKPGEAPKLLIYAASILQSGVPSRFGGNGSGTDFTLTISSLQPEDFATFYCQQTYRSPLTFGGGTKVEIK
notes: IgG; V domains only
B22: C886 (antibody, V domains shown)
VH: EVQLVESGGDLVQPGGSLRLSCAASGFSVTTNAMAWVRQAPGKGLEWISYINIGSANIQYADSVKGRFTISRDNAKNSLYLQMNSLRDEDTAVYYCARGDCTSSSCYSLDYWGQGALVTVSS
VL: DIQMTQSPSSLSASVGDRVSITCRASQTINTHLSWYLQKPGEAPRLLVYAASTLHSGVPSRFSGSGSGTDFTLTISSLQPEDFATFYCQQTYRFPLTFGGGTKVEIK
notes: IgG; V domains only

Target: T1, SARS-COV-2 RBD (SARS-COV-2, UniProt P0DTC2 319-539)
T1 construct: also called WT RBD
Test: ELISA, RBD coated

First: B1
Second: B2
The EC50 of the first is 1.9-fold higher: 4.22 ng/mL for the first, 2.19 ng/mL for the second.

First: B3
Second: B4
The EC50 of the first is 6.6-fold higher: 16.8 ng/mL for the first, 2.53 ng/mL for the second.

B5 and B6 are within 1.5-fold of each other in EC50: 2.14 ng/mL for the first, 1.44 ng/mL for the second.

Compared with B7, B8 is 1.5-fold higher in EC50: 1.88 ng/mL for the first, 2.9 ng/mL for the second.

Compared with B9, B10 is 1.6-fold higher in EC50: 2.17 ng/mL for the first, 3.5 ng/mL for the second.

First: B11
Second: B12
The EC50 of the first is 1.7-fold higher: 3.39 ng/mL for the first, 2 ng/mL for the second.

Going from B13 to B14, the EC50 falls from 7.45 ng/mL to 4.25 ng/mL (1.8-fold).

First: B15
Second: B16
The EC50 of the first is 2.1-fold lower: 1.52 ng/mL for the first, 3.14 ng/mL for the second.

B17 and B18 are within 1.5-fold of each other in EC50: 2.71 ng/mL for the first, 4.05 ng/mL for the second.

B19 and B20 are within 1.5-fold of each other in EC50: 2.2 ng/mL for the first, 2.14 ng/mL for the second.

B21 and B22 are within 1.5-fold of each other in EC50: 3.2 ng/mL for the first, 2.48 ng/mL for the second.
